Results from paper PMC10397247.

Key:
[1] = biological target: T1, 4H1878-AA; assay: two-hybrid library CCmax;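 note: natural log of median RNA to DNA barcode read ratio; higher means stronger binding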
T1 chain: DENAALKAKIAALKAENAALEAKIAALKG

[2] = biological target: T2, 4H235-AA; assay: two-hybrid library CCmax; conditions: mean of both orientations;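 note: natural log of median RNA to DNA barcode read ratio; higher means stronger binding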
T2 chain: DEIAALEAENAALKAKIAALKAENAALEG

[3] = biological target: T3, 4H249-AA; assay: two-hybrid library CCmax; conditions: mean of both orientations;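 note: natural log of median RNA to DNA barcode read ratio; higher means stronger binding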
T3 chain: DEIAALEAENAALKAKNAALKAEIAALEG

[4] = biological target: T4, 4H2580-AA; assay: two-hybrid library CCmax; conditions: mean of both orientations;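 note: natural log of median RNA to DNA barcode read ratio; higher means stronger binding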
T4 chain: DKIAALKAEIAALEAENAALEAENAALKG

[5] = biological target: T5, 4H2604-AA; assay: two-hybrid library CCmax; conditions: mean of both orientations;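 note: natural log of median RNA to DNA barcode read ratio; higher means stronger binding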
T5 chain: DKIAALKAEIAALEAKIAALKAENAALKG

[6] = biological target: T6, 4H2621-AA; assay: two-hybrid library CCmax; conditions: mean of both orientations;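 note: natural log of median RNA to DNA barcode read ratio; higher means stronger binding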
T6 chain: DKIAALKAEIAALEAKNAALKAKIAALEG

[7] = biological target: T7, 4H2760-AA; assay: two-hybrid library CCmax; conditions: mean of both orientations
T7 chain: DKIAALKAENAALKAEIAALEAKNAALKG

[8] = biological target: T8, 4H2774-AA; assay: two-hybrid library CCmax; conditions: mean of both orientations
T8 chain: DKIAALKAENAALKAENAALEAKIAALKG

[9] = biological target: T9, 4H2903-AA; assay: two-hybrid library CCmax; conditions: mean of both orientations
T9 chain: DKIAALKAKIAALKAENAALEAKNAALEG

[10] = biological target: T10, 4H2947-AA; assay: two-hybrid library CCmax; conditions: mean of both orientations
T10 chain: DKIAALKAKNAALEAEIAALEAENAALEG

[11] = biological target: T11, 4H2961-AA; assay: two-hybrid library CCmax; conditions: mean of both orientations
T11 chain: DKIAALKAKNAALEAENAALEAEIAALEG

[12] = biological target: T12, 4H3049-AA; assay: two-hybrid library CCmax; conditions: mean of both orientations
T12 chain: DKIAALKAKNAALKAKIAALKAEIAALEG

[13] = biological target: T13, 4H3094-AA; assay: two-hybrid library CCmax; conditions: mean of both orientations
T13 chain: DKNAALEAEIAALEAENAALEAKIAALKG

[14] = biological target: T14, 4H324-AA; assay: two-hybrid library CCmax; conditions: mean of both orientations
T14 chain: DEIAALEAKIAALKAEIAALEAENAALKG

[15] = biological target: T15, 4H341-AA; assay: two-hybrid library CCmax; conditions: mean of both orientations
T15 chain: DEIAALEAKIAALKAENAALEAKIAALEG

[16] = biological target: T16, 4H3449-AA; assay: two-hybrid library CCmax; conditions: mean of both orientations
T16 chain: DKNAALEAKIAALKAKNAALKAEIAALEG

[17] = biological target: T17, 4H3619-AA; assay: two-hybrid library CCmax; conditions: mean of both orientations
T17 chain: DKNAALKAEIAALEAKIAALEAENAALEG

[18] = biological target: T18, 4H3629-AA; assay: two-hybrid library CCmax; conditions: mean of both orientations
T18 chain: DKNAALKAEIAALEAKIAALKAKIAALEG

[19] = biological target: T19, 4H3777-AA; assay: two-hybrid library CCmax; conditions: mean of both orientations
T19 chain: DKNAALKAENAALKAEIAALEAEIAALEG

[20] = biological target: T20, 4H380-AA; assay: two-hybrid library CCmax; conditions: mean of both orientations
T20 chain: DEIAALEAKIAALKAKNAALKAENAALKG

[21] = biological target: T21, 4H3915-AA; assay: two-hybrid library CCmax; conditions: mean of both orientations
T21 chain: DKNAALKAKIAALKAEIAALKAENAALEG

[22] = biological target: T22, 4H3974-AA; assay: two-hybrid library CCmax; conditions: mean of both orientations
T22 chain: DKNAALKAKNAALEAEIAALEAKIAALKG

[23] = biological target: T23, 4H432-AA; assay: two-hybrid library CCmax; conditions: mean of both orientations
T23 chain: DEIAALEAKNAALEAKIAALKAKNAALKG

[24] = biological target: T24, 4H446-AA; assay: two-hybrid library CCmax; conditions: mean of both orientations
T24 chain: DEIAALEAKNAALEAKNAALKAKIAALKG

[25] = biological target: T25, 4H63-AA; assay: two-hybrid library CCmax; conditions: mean of both orientations
T25 chain: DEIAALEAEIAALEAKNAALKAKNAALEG

[26] = biological target: T26, P5SC1; assay: two-hybrid library CC1; conditions: mean of both orientations
T26 chain: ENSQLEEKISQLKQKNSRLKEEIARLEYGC

[27] = biological target: T27, P5SC2; assay: two-hybrid library CC1; conditions: mean of both orientations
T27 chain: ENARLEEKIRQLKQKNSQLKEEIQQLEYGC

[28] = biological target: T28, P5; assay: two-hybrid library CC1
T28 chain: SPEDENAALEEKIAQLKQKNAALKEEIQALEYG

[29] = biological target: T29, P5mS; assay: two-hybrid library CC1; conditions: mean of both orientations
T29 chain: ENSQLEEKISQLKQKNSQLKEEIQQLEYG

[30] = biological target: T30, P6SC1; assay: two-hybrid library CC1; conditions: mean of both orientations
T30 chain: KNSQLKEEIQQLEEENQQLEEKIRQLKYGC

[31] = biological target: T31, P6SC2; assay: two-hybrid library CC1; conditions: mean of both orientations
T31 chain: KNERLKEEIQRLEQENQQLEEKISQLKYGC

[32] = biological target: T32, P6; assay: two-hybrid library CC1; conditions: mean of both orientations
T32 chain: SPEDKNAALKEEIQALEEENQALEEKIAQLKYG

[33] = biological target: T33, P6mS; assay: two-hybrid library CC1; conditions: mean of both orientations
T33 chain: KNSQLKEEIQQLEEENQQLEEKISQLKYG

[34] = biological target: T34, P7; assay: two-hybrid library CC1; conditions: mean of both orientations
T34 chain: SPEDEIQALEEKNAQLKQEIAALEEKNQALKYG

[35] = biological target: T35, P7mS; assay: two-hybrid library CC1; conditions: mean of both orientations
T35 chain: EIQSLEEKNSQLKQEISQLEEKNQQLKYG

[36] = biological target: T36, P8; assay: two-hybrid library CC1; conditions: mean of both orientations
T36 chain: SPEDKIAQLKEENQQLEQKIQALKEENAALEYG

[37] = biological target: T37, P8mS; assay: two-hybrid library CC1; conditions: mean of both orientations
T37 chain: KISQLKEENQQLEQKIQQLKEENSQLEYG

[38] = biological target: T38, P9; assay: two-hybrid library CC1; conditions: mean of both orientations
T38 chain: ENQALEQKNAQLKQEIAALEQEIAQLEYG

B1: 4H1878-AA (peptide)
chain: DENAALKAKIAALKAENAALEAKIAALKG
interaction score [1]: 0.691 | interaction score [2]: 0.899 | interaction score [3]: 1.34 | interaction score [4]: -0.744 | interaction score [5]: -0.964 | interaction score [6]: 2.05 | interaction score [7]: 1.48 | interaction score [8]: -1.27 | interaction score [9]: -0.956 | interaction score [10]: -0.843 | interaction score [11]: -1.54 | interaction score [12]: -0.448 | interaction score [13]: 1.41 | interaction score [14]: 0.44 | interaction score [15]: 0.00503 | interaction score [16]: 1.63 | interaction score [17]: -0.661 | interaction score [18]: 1.63 | interaction score [19]: -1.54 | interaction score [20]: -0.854 | interaction score [21]: -1.7 | interaction score [22]: -1.23 | interaction score [23]: -0.557 | interaction score [24]: -1.08 | interaction score [25]: 1.51

B2: P5 (peptide)
chain: T28 chain
interaction score [26]: -2.93 | interaction score [27]: -2.84 | interaction score [28]: -2.89 | interaction score [29]: -2.94 | interaction score [30]: 0.186 | interaction score [31]: 0.252 | interaction score [32]: 0.207 | interaction score [33]: 0.1 | interaction score [34]: -2.59 | interaction score [35]: -2.8 | interaction score [36]: -1.39 | interaction score [37]: -2.62 | interaction score [38]: -2.12
